We go through 12 molecules from patent publication US20140213531A1 (POLYPHOR, published 2014).

What all share (assay): enzyme inhibition, pNA substrate
Assay [1] deals with T1, Chymotrypsin, from human pancreas (human, UniProt P17538 19-263).
T1 construct: purified natural enzyme, bought

Another assay addresses T2, Chymase, from human skin (human, UniProt P23946 22-247).
T2 construct: purified natural enzyme, bought
T2 sequence (looked up): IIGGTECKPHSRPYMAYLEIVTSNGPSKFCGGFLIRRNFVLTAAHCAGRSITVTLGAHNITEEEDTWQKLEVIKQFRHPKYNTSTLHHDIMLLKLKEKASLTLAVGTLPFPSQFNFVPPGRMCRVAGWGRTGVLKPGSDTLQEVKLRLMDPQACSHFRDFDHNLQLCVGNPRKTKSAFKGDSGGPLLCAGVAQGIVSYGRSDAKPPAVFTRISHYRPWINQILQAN

Assay [2] has as its target T3, Coagulation Factor Xa, from uman plasma (human, UniProt P00742 41-179; P00742 235-488, limits assumed).
T3 construct: purified natural enzyme, bought; also called FXa

Assay [3] deals with T4, Tryptase, from human lung (human, UniProt Q15661 31-275, limits assumed).
T4 construct: purified natural enzyme, bought

Assay [4] concerns the target T5, Trypsin, Iodination grade, from human pancreas (human, UniProt P07477 24-247).
T5 construct: purified natural enzyme, bought

The target in assay [5] is Thrombin, from Human Plasma, high activity (human, UniProt P00734 328-622).

Bridges are numbered along the chain shown (N, C = ends). [ ]: non-standard residue; d: D form. Nle = CCCC[C@H](N)C(=O)O

T1 sequence (P17538 19-263): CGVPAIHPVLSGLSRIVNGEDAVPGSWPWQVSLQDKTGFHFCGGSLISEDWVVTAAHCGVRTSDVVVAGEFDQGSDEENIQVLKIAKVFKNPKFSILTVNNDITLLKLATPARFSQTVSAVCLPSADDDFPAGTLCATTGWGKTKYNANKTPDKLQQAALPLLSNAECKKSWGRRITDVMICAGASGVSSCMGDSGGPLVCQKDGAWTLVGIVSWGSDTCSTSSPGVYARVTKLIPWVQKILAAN
T4 sequence (Q15661 31-275 limits assumed): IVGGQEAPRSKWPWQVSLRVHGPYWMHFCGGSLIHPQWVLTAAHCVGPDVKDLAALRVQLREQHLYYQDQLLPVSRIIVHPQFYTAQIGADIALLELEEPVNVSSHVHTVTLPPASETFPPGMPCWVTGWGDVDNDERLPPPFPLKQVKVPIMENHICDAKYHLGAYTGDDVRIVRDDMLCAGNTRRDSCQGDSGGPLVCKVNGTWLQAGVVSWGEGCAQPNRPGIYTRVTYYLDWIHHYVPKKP
T3 sequence (P00742 41-179 limits assumed, chain 1 of 2): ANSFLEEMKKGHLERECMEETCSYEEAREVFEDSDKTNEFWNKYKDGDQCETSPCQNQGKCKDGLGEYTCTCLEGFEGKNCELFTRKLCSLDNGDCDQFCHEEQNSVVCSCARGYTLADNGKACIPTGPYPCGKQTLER
T3 sequence (P00742 235-488 limits assumed, chain 2 of 2): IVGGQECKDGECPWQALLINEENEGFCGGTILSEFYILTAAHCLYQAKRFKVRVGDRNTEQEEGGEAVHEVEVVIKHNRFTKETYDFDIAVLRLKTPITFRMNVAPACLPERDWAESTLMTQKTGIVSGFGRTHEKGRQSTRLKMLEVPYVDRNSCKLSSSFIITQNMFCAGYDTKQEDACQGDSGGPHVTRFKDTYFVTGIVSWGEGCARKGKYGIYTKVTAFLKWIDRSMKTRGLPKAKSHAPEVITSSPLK

B1: Example 144 (peptide)
peptide: XCTASIPPQCX
HELM: PEPTIDE1{[Nle].C.T.A.S.I.P.P.Q.C.[O=C([C@H](Cc1ccccc1Cl)N[*:1])[*:2]].[dP].P}$PEPTIDE1,PEPTIDE1,2:R3-10:R3|PEPTIDE1,PEPTIDE1,1:R1-13:R2$$$V2.0
SMILES: CCCC[C@@H]1NC(=O)[C@@H]2CCCN2C(=O)[C@H]2CCCN2C(=O)[C@H](Cc2ccccc2Cl)NC(=O)[C@@H]2CSSC[C@H](NC1=O)C(=O)N[C@@H]([C@@H](C)O)C(=O)N[C@@H](C)C(=O)N[C@@H](CO)C(=O)N[C@@H]([C@@H](C)CC)C(=O)N1CCC[C@H]1C(=O)N1CCC[C@H]1C(=O)N[C@@H](CCC(N)=O)C(=O)N2
Consider B1, for which the % inhibition (in general, the share of the control response that was lost under treatment) at 100 µM in assay [1] was 80.6%; with Chymase, from human skin it was 0%; in assay [2], 0%; in assay [3], 0%.

Take cyclo([Nle]CTASIPPQCY[dF]P) (disulfide 2-10) [Example 116]: the “% inhibition at 100 µM” value in assay [4] was found to be 0%.

B2: Example 123 (peptide)
peptide: XCTASIPPQCY
HELM: PEPTIDE1{[Nle].C.T.A.S.I.P.P.Q.C.Y.[dP].Q}$PEPTIDE1,PEPTIDE1,2:R3-10:R3|PEPTIDE1,PEPTIDE1,1:R1-13:R2$$$V2.0
SMILES: CCCC[C@@H]1NC(=O)[C@H](CCC(N)=O)NC(=O)[C@H]2CCCN2C(=O)[C@H](Cc2ccc(O)cc2)NC(=O)[C@@H]2CSSC[C@H](NC1=O)C(=O)N[C@@H]([C@@H](C)O)C(=O)N[C@@H](C)C(=O)N[C@@H](CO)C(=O)N[C@@H]([C@@H](C)CC)C(=O)N1CCC[C@H]1C(=O)N1CCC[C@H]1C(=O)N[C@@H](CCC(N)=O)C(=O)N2
notes: also called Ex. 123
For B2, the “% inhibition at 100 µM” value with Chymase, from human skin was found to be 0%; in assay [2] it was 0%.

B3: Example 85 (peptide)
peptide: XCTASXPPQCY
HELM: PEPTIDE1{[Nle].C.T.A.S.[CC(C)(C)C[C@H](N[*:1])C(=O)[*:2]].P.P.Q.C.Y.[dP].P}$PEPTIDE1,PEPTIDE1,2:R3-10:R3|PEPTIDE1,PEPTIDE1,1:R1-13:R2$$$V2.0
SMILES: CCCC[C@@H]1NC(=O)[C@@H]2CCCN2C(=O)[C@H]2CCCN2C(=O)[C@H](Cc2ccc(O)cc2)NC(=O)[C@@H]2CSSC[C@H](NC1=O)C(=O)N[C@@H]([C@@H](C)O)C(=O)N[C@@H](C)C(=O)N[C@@H](CO)C(=O)N[C@@H](CC(C)(C)C)C(=O)N1CCC[C@H]1C(=O)N1CCC[C@H]1C(=O)N[C@@H](CCC(N)=O)C(=O)N2
notes: also called Ex. 85
For B3, the results for the “% inhibition at 100 µM” value in assay [4], in assay [5] and in assay [2] were 0%, 12.6% and 25.6%, respectively.

B4: Example 121 (peptide)
peptide: XCTASIPPQCY
HELM: PEPTIDE1{[Nle].C.T.A.S.I.P.P.Q.C.Y.[dP].D}$PEPTIDE1,PEPTIDE1,2:R3-10:R3|PEPTIDE1,PEPTIDE1,1:R1-13:R2$$$V2.0
SMILES: CCCC[C@@H]1NC(=O)[C@H](CC(=O)O)NC(=O)[C@H]2CCCN2C(=O)[C@H](Cc2ccc(O)cc2)NC(=O)[C@@H]2CSSC[C@H](NC1=O)C(=O)N[C@@H]([C@@H](C)O)C(=O)N[C@@H](C)C(=O)N[C@@H](CO)C(=O)N[C@@H]([C@@H](C)CC)C(=O)N1CCC[C@H]1C(=O)N1CCC[C@H]1C(=O)N[C@@H](CCC(N)=O)C(=O)N2
Turning to B4, the “% inhibition at 100 µM” value was found to be 12.8% in assay [4] and 0% in assay [5].

B5: Example 179 (peptide)
peptide: XCTASIPPQCY
HELM: PEPTIDE1{[Nle].C.T.A.S.I.P.P.Q.C.Y.[dP].P}$PEPTIDE1,PEPTIDE1,2:R3-10:R3|PEPTIDE1,PEPTIDE1,1:R1-13:R2$$$V2.0
SMILES: CCCC[C@@H]1NC(=O)[C@@H]2CCCN2C(=O)[C@H]2CCCN2C(=O)[C@H](Cc2ccc(O)cc2)NC(=O)[C@@H]2CSSC[C@H](NC1=O)C(=O)N[C@@H]([C@@H](C)O)C(=O)N[C@@H](C)C(=O)N[C@@H](CO)C(=O)N[C@@H]([C@@H](C)CC)C(=O)N1CCC[C@H]1C(=O)N1CCC[C@H]1C(=O)N[C@@H](CCC(N)=O)C(=O)N2
In the case of B5, the results for the “% inhibition at 100 µM” value in assay [1] and in assay [3] were 76% and 0%, respectively.

B6: Example 168 (peptide)
peptide: XCTASIPPQCY
HELM: PEPTIDE1{[Nle].C.T.A.S.I.P.P.Q.C.Y.[dP].D}$PEPTIDE1,PEPTIDE1,2:R3-10:R3|PEPTIDE1,PEPTIDE1,1:R1-13:R2$$$V2.0
SMILES: CCCC[C@@H]1NC(=O)[C@H](CC(=O)O)NC(=O)[C@H]2CCCN2C(=O)[C@H](Cc2ccc(O)cc2)NC(=O)[C@@H]2CSSC[C@H](NC1=O)C(=O)N[C@@H]([C@@H](C)O)C(=O)N[C@@H](C)C(=O)N[C@@H](CO)C(=O)N[C@@H]([C@@H](C)CC)C(=O)N1CCC[C@H]1C(=O)N1CCC[C@H]1C(=O)N[C@@H](CCC(N)=O)C(=O)N2
notes: also called Ex. 168
In the case of B6, the “% inhibition at 100 µM” value was found to be 12.8% in assay [4], 72.9% in assay [1] and 0% in assay [5].

B7: Example 96 (peptide)
peptide: XCTASIPPQCX
HELM: PEPTIDE1{[Nle].C.T.A.S.I.P.P.Q.C.[O=C([C@H](Cc1ccccc1Cl)N[*:1])[*:2]].[dP].P}$PEPTIDE1,PEPTIDE1,2:R3-10:R3|PEPTIDE1,PEPTIDE1,1:R1-13:R2$$$V2.0
SMILES: CCCC[C@@H]1NC(=O)[C@@H]2CCCN2C(=O)[C@H]2CCCN2C(=O)[C@H](Cc2ccccc2Cl)NC(=O)[C@@H]2CSSC[C@H](NC1=O)C(=O)N[C@@H]([C@@H](C)O)C(=O)N[C@@H](C)C(=O)N[C@@H](CO)C(=O)N[C@@H]([C@@H](C)CC)C(=O)N1CCC[C@H]1C(=O)N1CCC[C@H]1C(=O)N[C@@H](CCC(N)=O)C(=O)N2
notes: also called Ex. 96
Consider B7, for which the “% inhibition at 100 µM” value with Chymase, from human skin came to 0%; in assay [2] it was 0%; in assay [3], 0%.

B8: Example 102 (peptide)
peptide: XCTASIPPQCY
HELM: PEPTIDE1{[CCCCCCCC[C@H](N[*:1])C(=O)[*:2]].C.T.A.S.I.P.P.Q.C.Y.[dP].P}$PEPTIDE1,PEPTIDE1,2:R3-10:R3|PEPTIDE1,PEPTIDE1,1:R1-13:R2$$$V2.0
SMILES: CCCCCCCC[C@@H]1NC(=O)[C@@H]2CCCN2C(=O)[C@H]2CCCN2C(=O)[C@H](Cc2ccc(O)cc2)NC(=O)[C@@H]2CSSC[C@H](NC1=O)C(=O)N[C@@H]([C@@H](C)O)C(=O)N[C@@H](C)C(=O)N[C@@H](CO)C(=O)N[C@@H]([C@@H](C)CC)C(=O)N1CCC[C@H]1C(=O)N1CCC[C@H]1C(=O)N[C@@H](CCC(N)=O)C(=O)N2
As for B8, the “% inhibition at 100 µM” value in assay [4] came to 0%; in the assay with Chymase, from human skin, 0%; in assay [2], 0%; in assay [3] it was 0%.

B9: Example 131 (peptide)
peptide: XCTASIPPQCQ
HELM: PEPTIDE1{[Nle].C.T.A.S.I.P.P.Q.C.Q.[dP].P}$PEPTIDE1,PEPTIDE1,2:R3-10:R3|PEPTIDE1,PEPTIDE1,1:R1-13:R2$$$V2.0
SMILES: CCCC[C@@H]1NC(=O)[C@@H]2CCCN2C(=O)[C@H]2CCCN2C(=O)[C@H](CCC(N)=O)NC(=O)[C@@H]2CSSC[C@H](NC1=O)C(=O)N[C@@H]([C@@H](C)O)C(=O)N[C@@H](C)C(=O)N[C@@H](CO)C(=O)N[C@@H]([C@@H](C)CC)C(=O)N1CCC[C@H]1C(=O)N1CCC[C@H]1C(=O)N[C@@H](CCC(N)=O)C(=O)N2
Consider B9, for which the “% inhibition at 100 µM” value in assay [4] is 0%.

B10: Example 137 (peptide)
peptide: XCTASIPPQCF
HELM: PEPTIDE1{[Nle].C.T.A.S.I.P.P.Q.C.F.[dP].P}$PEPTIDE1,PEPTIDE1,2:R3-10:R3|PEPTIDE1,PEPTIDE1,1:R1-13:R2$$$V2.0
SMILES: CCCC[C@@H]1NC(=O)[C@@H]2CCCN2C(=O)[C@H]2CCCN2C(=O)[C@H](Cc2ccccc2)NC(=O)[C@@H]2CSSC[C@H](NC1=O)C(=O)N[C@@H]([C@@H](C)O)C(=O)N[C@@H](C)C(=O)N[C@@H](CO)C(=O)N[C@@H]([C@@H](C)CC)C(=O)N1CCC[C@H]1C(=O)N1CCC[C@H]1C(=O)N[C@@H](CCC(N)=O)C(=O)N2
notes: also called Ex. 137
As to B10, the “% inhibition at 100 µM” value was found to be 68.7% in assay [1]; 0% with Chymase, from human skin; 0% in assay [5].

B11: Example 125 (peptide)
peptide: XCTASIPPQCY
HELM: PEPTIDE1{[Nle].C.T.A.S.I.P.P.Q.C.Y.[dP].V}$PEPTIDE1,PEPTIDE1,2:R3-10:R3|PEPTIDE1,PEPTIDE1,1:R1-13:R2$$$V2.0
SMILES: CCCC[C@@H]1NC(=O)[C@H](C(C)C)NC(=O)[C@H]2CCCN2C(=O)[C@H](Cc2ccc(O)cc2)NC(=O)[C@@H]2CSSC[C@H](NC1=O)C(=O)N[C@@H]([C@@H](C)O)C(=O)N[C@@H](C)C(=O)N[C@@H](CO)C(=O)N[C@@H]([C@@H](C)CC)C(=O)N1CCC[C@H]1C(=O)N1CCC[C@H]1C(=O)N[C@@H](CCC(N)=O)C(=O)N2
Take B11: the entries for the “% inhibition at 100 µM” value in assay [4], in assay [5] and in assay [2] were 28.3%, 0% and 0%, respectively.
